Experimental findings from patent publication US20220251215A1 (Regeneron, published 2022) are described below.

First the molecules themselves.
B1: mAb28128P (antibody, human IgG4 S228P, kappa, V domains shown)
VH: EVQLVESGGGVVQPGGSLRLSCAASGFIFDDYAMHWVRQVPGKGLEWISLSSGGGGGTYYADPVKGRFTISRDNSKNSLHLQMNSLRAEDTASYYCAKDMVFGVVTPDFFFAMDVWGQGTTVTVSS
VL: DIQMTQSPSSLSASVGDRVTITCRASQSISTYLNWYQQKPGKAPKLLIYGASSLQRGVPSRFSGSGSGTDFTLTISSLQPEDFATYYCQQTYSTPPITFGQGTRLEIKR
B2: mAb28037P2 (antibody, human IgG4 S228P, kappa, V domains shown)
VH: QVQLQESGPGLVKPSETLSLTCTVSGDSISVYYWTWIRQPPGKGLEWIGYVHYTGYTNYNPSLKSRVTMSVDTAKKQISLKVRSVTAADTAVYYCARTIPAAAHYYHGTDVWGPGTTVTVSS
VL: DIQMTQSPSSLSASVGDRVTITCQANQDIRKYLNWYQQKSGKAPTLLIYEASNLETGAPSTFSGSGSGTEFTFTISSLRPEDIATYYCQQYESLPLTFGGGTKVEIKR
B3: mAb28042P (antibody, human IgG4 S228P, kappa, V domains shown)
VH: QLQLQESDPGLVKPSETLSLTCTVSGDSIRNSNYYWGWIRQPPGKGLEWIGSIYFSGRTYFNPSLKSRVTIPVDMSKNQFSLMLNSVTATDTAVYYCARHGGITAAGGFFDYWGQGTLVTVSS
VL: DIQMTQSPSSLSASVGDRVTITCQASQDISNYLNWYQQKPGKAPNVLIYDASNLETGVPSRFSGSGSGTDFTFTISSLQPEDFATYYCQQNDNLPLTFGGGTKVEIKR

The target of the first assay is T1, monomeric HLA-A2:NY-ESO-1(156-165) (V at position 165) peptide complex, 2906.
T1 construct: also called soluble HLA-A2:NY-ESO-1 peptide complex
The assay is described as follows: SPR, 25 C, antibody captured, monomeric complex injected.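 Further: antibody held on sensor chip via immobilized anti-human or anti-mouse Fc antibody, rate constants derived by fitting sensorgrams to a 1:1 binding model.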
Regarding B1, the Kd was found to be 0.16 nM, the koff came to 0.000185 s⁻¹, the kon was found to be 1.16e+06 M⁻¹ s⁻¹ and the t½ came to 62.5 min.
On the same counts, the results for B2 are 0.692 nM, 0.000307 s⁻¹, 443000 M⁻¹ s⁻¹ and 37.7 min.
On the same counts, the results for B3 are 0.55 nM, 0.000199 s⁻¹, 362000 M⁻¹ s⁻¹ and 58 min.

A further assay addresses HLA-A2 on T2 cells pulsed with ZDHHC1 (376-384) peptide (human). The assay is described as follows: flow cytometry, 10 ug/ml, pulsed T2 cells.
Take B1: the “ratio of MFI, pulsed to unpulsed” value came out at 1.6 ratio.
With B2, the “ratio of MFI, pulsed to unpulsed” value is 0.5 ratio.
The same measure, in the same setting: next, B3: 0.5 ratio.

A further assay addresses T2, HLA-A2 on T2 cells pulsed with NY-ESO-1:157-165, wt peptide (C165) (human).
T2 construct: also called T2 Pulsed NY-ESO-1_157-165
Kind of assay: flow cytometry, 10 ug/ml, pulsed T2 cells.
For B1, the “ratio of MFI, pulsed to unpulsed” value turned out to be 138 ratio.
Still for that read-out and setting: under B2 stands 137 ratio; under B3, 134 ratio.

The target in another assay is HLA-A2 on T2 cells pulsed with URB1: 1853-1861 peptide (human). The assay is described as follows: flow cytometry, 10 ug/ml, pulsed T2 cells.
As to B1, the “ratio of MFI, pulsed to unpulsed” value came to 0.6 ratio.
On to B2, for which the “ratio of MFI, pulsed to unpulsed” value is 0.6 ratio.
Still for that read-out and setting: next, B3: 0.5 ratio.

The target of a further assay is HLA-A2 on T2 cells pulsed with FBXL22: 4-12 peptide (human). Kind of assay: flow cytometry, 10 ug/ml, pulsed T2 cells.
On to B1, for which the “ratio of MFI, pulsed to unpulsed” value worked out at 1.3 ratio.
Take B2: the “ratio of MFI, pulsed to unpulsed” value was 0.5 ratio.
Same read-out and setting: under B3 stands 0.5 ratio.

The target of another assay is HLA-A2 on T2 cells pulsed with EARS2: 306-314 peptide (human). Kind of assay: flow cytometry, 10 ug/ml, pulsed T2 cells.
B1: the “ratio of MFI, pulsed to unpulsed” value came to 0.6 ratio.
Still for that read-out and setting: next, B2: 0.6 ratio; B3: 0.6 ratio.

A further assay addresses HLA-A2 on T2 cells pulsed with BCL9L: 1351-1359 peptide (human). The assay is described as follows: flow cytometry, 10 ug/ml, pulsed T2 cells.
For B1, the “ratio of MFI, pulsed to unpulsed” value was 3 ratio.
On the same count and under the same terms, next, B2: 52.3 ratio; B3: 46.5 ratio.

Another assay addresses HLA-A2 on T2 cells pulsed with ITCH (807-815) peptide (human). The assay is described as follows: flow cytometry, 10 ug/ml, pulsed T2 cells.
On to B1, for which the “ratio of MFI, pulsed to unpulsed” value amounted to 1 ratio.
The same measure, in the same setting: next, B2: 1.3 ratio; B3: 0.7 ratio.

The target in another assay is HLA-A2 on T2 cells pulsed with MAGEH1: 90-98 peptide (human). The assay is described as follows: flow cytometry, 10 ug/ml, pulsed T2 cells.
Consider B1, for which the “ratio of MFI, pulsed to unpulsed” value was determined as 0.5 ratio.
The same measure, in the same setting: under B2 stands 0.4 ratio.
Same read-out and setting: under B3 stands 0.4 ratio.

The target in another assay is HLA-A2 on T2 cells pulsed with GRID1: 7-15 peptide (human). Kind of assay: flow cytometry, 10 ug/ml, pulsed T2 cells.
B1: the “ratio of MFI, pulsed to unpulsed” value was found to be 1.6 ratio.
Same read-out and setting: next, B2: 0.7 ratio; B3: 17.4 ratio.

The target of the next assay is T1, monomeric HLA-A2:NY-ESO-1(156-165) (V …). Kind of assay: SPR, 37 C, antibody captured, monomeric complex injected.
For B1, binding was characterised by a dissociation constant (Kd) of 0.293 nM, the koff was determined as 0.000441 s⁻¹, the kon was determined as 1.5e+06 M⁻¹ s⁻¹ and the t½ came out at 26.2 min.
The molecule B2 gave a Kd of 2.76 nM, a koff of 0.00183 s⁻¹, a kon of 664000 M⁻¹ s⁻¹ and a t½ of 6.3 min.
For B3, in that order: 2.09 nM, 0.00117 s⁻¹, 561000 M⁻¹ s⁻¹ and 9.9 min.

A further assay concerns the target T2, HLA-A2 on T2 cells pulsed with …. Kind of assay: flow cytometry, peptide-pulsed T2 cells.
B1: a half-maximal effect (EC50) was put at 0.32 nM.
Turning to B2, it took 0.78 nM to reach a half-maximal effect (EC50).
For the molecule B3, a half-maximal response (EC50) required 1.6 nM.
